Measurements published in patent US8597922B2, “Methods and compositions for producing olefins” (LS9, Inc., priority 2007, dated 2013).

Key:
Type in all cases: cell-based
B. subtilis IHA01 = assay: α-Olefin production in Bacillus subtilis by heterologous expression; details: 0.05% stearic acid, versus vector only control
Description: Genomic DNA encoding Jeotgalicoccus ATCC 8456_orf880 was cloned into the BamHI and XbaI sites of vector pHT01 under the control of the Pgrac promoter. B. subtilis IHA01 (lacA::spec leuB8 metB5 r(−)m(+) Sp, obtained from Bacillus Genetic Stock Center, Columbus, Ohio, strain number BGSC 1A785) was transformed with the resulting vector. The B. subtilis cells were grown at 37° C. in minimal medium supplemented with 2% glucose, 0.3 mM leucine, 0.3 mM methionine, and 10 mg/L chloramphenicol. When the cultures reached an OD600 of 0.8 to 1.0, 1 mM IPTG was added (to induce expression of orf880) along with 0.5 mM 5-amino laevulinic acid (as a precursor for heme biosynthesis) and 0.05% stearic acid (as a substrate for ORF880). The temperature was shifted to 25° C. and after growth for additional 18-24 h at 25° C., cells from a 1 mL culture were pelleted, resuspended in 100 μL methanol, sonicated for 1 h, and extracted with 300 μL ethyl acetate. 300 μL of water was added before separating the organic layer by centrifugation at 15,000 rpm for 5 min. The solvent layer was analyzed by GC-MS.
Genomic DNA encoding Corynebacterium efficiens YS-134 orfCE2459 was cloned into the BamHI and XbaI sites of vector pHT01 under the control of the Pgrac promoter and transformed into B. subtilis IHA01 cells. The resulting cells were grown, extracted, and analyzed as described in Example 9.

E. coli = assay: Heterologous expression of 8456_orf880 in E. coli with fatty acid feeding
Description: ATCC 8456 cells were grown in 15 mL TSBYE medium (3% Tryptic Soy Broth+0.5% Yeast Extract). Fatty acids were added to the culture medium at final concentrations of 0.5 g/l (0.05%). After growth for 40-48 h at 30° C., cells from 5 mL of culture were pelleted, resuspended in 1 mL methanol, sonicated for 30 min, and extracted with 4 mL hexane. After solvent evaporation, samples were resuspended in 0.1 mL hexane and analyzed by GC-MS.
Jeotgalicoccus ATCC 8456 ORF880 was identified as one of the two major proteins in a highly purified enzyme fraction that catalyzed the conversion of free fatty acids to α-olefins. The genomic DNA encoding ATCC 8456_orf880 was cloned into pCDF-Duet1 under the control of the T7 promoter, and E. coli was transformed with various vectors, as described below. The E. coli cells were grown, and the hydrocarbons produced by the cells were analyzed as described in Example 2. When 0.05% stearic acid was fed to cultures of E. coli transformed with the 8456_orf880-containing vector, the expression of 8456_orf880 led to the formation of 1-heptadecene in E. coli (see FIG. 8, depicting GC/MS traces of α-olefins from E. coli either without (black) or with (gray) expression of 8456_orf880). […] Additionally, when E. coli cells expressing 8456_orf880 protein were fed with 0.05% palmitic acid or 0.05% eicosanoic acid, the production of 1-pentadecene or 1-nonadecene, respectively, was observed.

[1] = tested on: S. cerevisiae (BY4741) yeast cells; assay: α-Olefin production in Saccharomyces cerevisiae by heterologous expression of orf880; details: expressed in S. cerevisiae
Description: Genomic DNA encoding Jeotgalicoccus sp. ATCC 8456_orf880 is cloned into the ApaI and XhoI sites of the yeast expression vector pESC-His. S. cerevisiae (BY4741) yeast cells are then transformed with either a plasmid containing orf880 or a plasmid not containing orf880. The transformed yeast cells are cultured under suitable conditions to allow expression of ORF880. The cells are pelleted and then lysed using YeastBuster™ (Novagen, Madison, Wis.). The α-olefins are extracted and analyzed as described in Examples 6 and 7.

B1: ORF880: olefin-producing enzyme (fatty acid decarboxylase) from Jeotgalicoccus sp. ATCC 8456, SEQ ID NO:2 (protein)
chain: MATLKRDKGLDNTLKVLKQGYLYTTNQRNRLNTSVFQTKALGGKPFVVVTGKEGAEMFYNNDVVQREGMLPKRIVNTLFGKGAIHTVDGKKHVDRKALFMSLMTEGNLNYVRELTRTLWHANTQRMESMDEVNIYRESIVLLTKVGTRWAGVQAPPEDIERIATDMDIMIDSFRALGGAFKGYKASKEARRRVEDWLEEQIIETRKGNIHPPEGTALYEFAHWEDYLGNPMDSRTCAIDLMNTFRPLIAINRFVSFGLHAMNENPITREKIKSEPDYAYKFAQEVRRYYPFVPFLPGKAKVDIDFQGVTIPAGVGLALDVYGTTHDESLWDDPNEFRPERFETWDGSPFDLIPQGGGDYWTNHRCAGEWITVIIMEETMKYFAEKITYDVPEQDLEVDLNSIPGYVKSGFVIKNVREVVDRT
modifications: Jeotgalicoccus sp. ATCC8456
B. subtilis IHA01
  α-olefin produced from stearic acid: 1-heptadecene
E. coli; 0.05% eicosanoic acid fed
  α-olefin produced: 1-nonadecene
E. coli; 0.05% palmitic acid fed
  α-olefin produced: 1-pentadecene
E. coli; 0.05% stearic acid fed
  α-olefin produced: 1-heptadecene
[1]
  α-olefin production: produces α-olefins
